Assay: yeast display, Sf9 membrane polyspecificity reagent, FACS + sequencing; frameworks hold sequencing errors
Summary of the method: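 Nanobodies came from a synthetic yeast display library in Saccharomyces cerevisiae BJ5465, induced with galactose for 36–48 hours and stained for 1 hour at 4 °C with 10% biotinylated, detergent-solubilized Sf9 membrane reagent. Cells were enriched on streptavidin microbeads and then FACS-sorted, with low and high (top ~1%) gates set on anti-HA fluorescence for expression and streptavidin fluorescence for reagent binding. Each polyreactivity label reflects the gate a clone came from. Genes were amplified by colony PCR, sequenced by MiSeq 2 × 250 and filtered by CDR length.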

Row | Sequence | polyreactivity (PSR sort gate)
1 | QVQLQESGGGLVQAGGSLRLSCAASGSIANLIAKGWSRQAQRKEREFVAAIGPGANTNYADSVKGRFTISRDNANNTVYRQMNSLKPEDTAVYYCAVDYYGEAVYHYWGQGTQVTVSS | high polyreactivity
2 | QVQLVESGGGLVQAGGSLRLSCAASGFTLDVYVMGWYRPAPGKERELVAAIRDSDDDTSYADSVKGRFTISRDNAKNTVYLQMNSLKPEDTAVYYCAVDYPTQPWGYYLLMDYWGQGTQVTVSS | low polyreactivity
3 | QFQLVESGGGLVQAGGSLRLSCAASGYTFRYYSMGWYRQATGKERELVAAISRSGGSTYYADSVKGRFTISRDYAKNTVYLQMYSLKPEDTAVYYCAADYSYRTRGNRYRLDYWGQGTQVTVSS | high polyreactivity
4 | QVQLVESAGGLVQAGGSLRLSCAASGSIFAGNVMGWYRQEPGKEWELVAAISRRGGRTYYADSVKGRFTISRDNAKNTVYLQMNSLKPEETAVYYCAARRDPVLCKSDYWGQGTQVTVSS | high polyreactivity
5 | QLQLEDSAGGLVQAGGSLRLSFAASGFIFDPNAIGWYRQAPAKEREFVAAIRTSGGSTYYADSVKGRFTISRDNAKNTVYLQMNSLKPEDPAVYYCAAKGRYADWSGYGYWGQGTQVTVSS | high polyreactivity
6 | QVQLVESGGGLVQAGGSLRLSCAASGLIFPRYAMGWYRQAPGKETELVAAISRSGGNTYYADSVKGRFTISRDNAKNTVYLQINRLKPEDTAVYYCAAYLKVRSPRDGYDYWGQGTQVSVSS | high polyreactivity
7 | QVQLVESGGGLVQAGGSLRLSCAASGSTFAYNAMGWYRQAPGKERELVARISSSGDITYYADSVKGRFTISRDNAKNTVYLQMNSLKPEDTAVYYCAKRYLTRYKGYYYWGQGTQVTVSS | high polyreactivity
8 | QVQLVESGGGLVQAGGSLRLSCAASGSIFTHYAMGWYRQAPGKERELVAAISRRGGSTYYADSVKGRFTISRDNAKNTVYLQMNSLKPEDTAVYYCANSPDTAKEYDYWGQGTQVTVSS | high polyreactivity
9 | QVQLVESGGGLVQAGGSLRLSCAASGRTFPRYAMGWYRQARGKEREMVAAISGTGGSTYYADSVKGRFTISRDNAKNTFYLQMNSLKPEDTAVYYCAAAFRDGFTRRYGYWGQGTQVTVSS | high polyreactivity
10 | QVQLVESGGGLVQAGGSLRLSCAASGSIFRLYAMGWYRQAPGKERELVAVISYSGGSTYYADSVKGRFTISRDNAKNTVYLQMNSLNPEDTAVYYCAARRRWYGIRNYYWGQGSQVTVSS | high polyreactivity
11 | QVQLVESGGGLVQAGGSLRLSCAASGRTIAQYAMGWSRQAPGKERELVAAISSSGGSTYYADSVKGRFTISRDNAKNTVYLQMNSLKPEDTAVYYCAKYGTKAKQYDYWGQGTQVTVSS | high polyreactivity
12 | QVQLVESGGGLVQAGGSLRLICAASGRIFRRNVMGWYRQAPGKDRELVAAIRGTGSTTYADSVKGRFTISRDNAKNTVYLQMNSLKPEDTAVYYCNAYKGQTGGGGRYGYWGQGTQVTVSS | high polyreactivity
13 | QVQLVESGGGLVQAGGSLRLSCAASGLTFNYYAMGWYRQAPGKERDLVAASTSSGSSTYYADSVKGRFTISRDNAKNTVSLQMNSLKAEDTAVYYCAVSRCSFYWLVDYWGQGTQVTVSS | high polyreactivity
14 | QVHLVDSGGGLVQARGSLRLSCAASGFTIGPYAMGWYRQAPGKERELVAAITIRGGSTYADSVKGRFTISRDNAKNTVYLQMNSLKPEDTAVYYCATVRALEYNYWGQGTQVTVSS | low polyreactivity
15 | QVQLVDSGGGLVQAGGSLRLSCSASGYIFYANTMGWYRQAPGKEREFVATISWIGSTYYADSVKGRFTISRDNAKNTVYLQMNSLKPEDTAVYYCNARYTYRRYGRYDYWGQGTQVTVSS | high polyreactivity
16 | QVQLVESGGGLVQAGGSLRLSCAASGRIFDDNAMGWDRQAPGKETELVAAISASGGSTYYADSVKGRFTISRVNAKNTVYLQMNSLKPEDTAVYYCAKAPGQDTPYPYGYWGQGTQVTVSS | high polyreactivity
17 | QVQLVESGGGLVQPGCSLRLSCAASGSIFYAYDMGWYRQSPGKERQLVAAISWSGGTTYYADSVKGRFTISRDNAKNTVYLQMNSLIPEDTAVYYCAAREYYTDVHGTRRYDYWGQGTQVTVSS | low polyreactivity

Source: the nanobody polyreactivity screen of Harvey et al. (2022)
